Measured values from US20260258376.

What was measured:
Assay in all cases: cell_activity
[1] = system: ZF-off targeting TAR1649 (second row, 10.70%) (synthetic); conditions: HLA-DR+ 10.70%; binding inferred from silencing
[2] = system: ZF-off targeting TAR1607 (table row SEQ 1538) (synthetic); conditions: HLA-DR+ 6.46%; binding inferred from silencing
[3] = system: ZF-off targeting TAR1616 (table row SEQ 1557) (synthetic); conditions: HLA-DR+ 5.76%; binding inferred from silencing
[4] = system: ZF-off targeting TAR1650 (table row SEQ 1549) (synthetic); conditions: HLA-DR+ 13.65%; binding inferred from silencing
[5] = system: ZF-off targeting TAR1654 (table row SEQ 1572) (synthetic); conditions: HLA-DR+ in primary human T cells, 2.64%; binding inferred from silencing
[6] = system: ZF-off targeting TAR1615 (table row SEQ 1601) (synthetic); conditions: HLA-DR+ 4.50%; binding inferred from silencing
[7] = system: ZF-off targeting TAR1648 (third row, 4.51%) (synthetic); conditions: HLA-DR+ 4.51%; binding inferred from silencing
[8] = system: ZF-off targeting TAR1604 (table row SEQ 1576) (synthetic); conditions: HLA-DR+ 12.84%; binding inferred from silencing
[9] = system: ZF-off targeting TAR186 (table row SEQ 1553) (synthetic); conditions: HLA-DR+ 7.53%; binding inferred from silencing
[10] = system: ZF-off targeting TAR1612 (table row SEQ 1599) (synthetic); conditions: HLA-DR+ 12.50%; binding inferred from silencing
[11] = system: ZF-off targeting TAR1608 (table row SEQ 1608) (synthetic); conditions: HLA-DR+ 12.05%; binding inferred from silencing
[12] = system: ZF-off targeting TAR1623 (table row SEQ 1605) (synthetic); conditions: HLA-DR+ 10.56%; binding inferred from silencing
[13] = system: ZF-off targeting TAR1646 (table row SEQ 1547) (synthetic); conditions: HLA-DR+ 3.88%; binding inferred from silencing
[14] = system: ZF-off targeting TAR1655 (table row SEQ 1563) (synthetic); conditions: HLA-DR+ 15.20%; binding inferred from silencing

ACAGAAAGTCTGTTGGGGG (double strand) [TAR1649]
activity (fraction of off-target control) [1]: 0.31

AGGGCACGAGGAGGGGCTG (double strand) [TAR1607]
activity (fraction of off-target control) [2]: 0.18

GAACAGATGGTGGGAAGAG (double strand) [TAR1616]
activity (fraction of off-target control) [3]: 0.16

GAATTTGGTGAAGACAGAA (double strand) [TAR1650]
activity (fraction of off-target control) [4]: 0.39

GACAGGTAGGACCCAGCAG (double strand) [TAR1654]
activity (fraction of off-target control) [5]: 0.08

GACGGGGGAACAGATGGTG (double strand) [TAR1615]
activity (fraction of off-target control) [6]: 0.13

GAGAGCCTCTGCTGGGGAC (double strand) [TAR1648]
activity (fraction of off-target control) [7]: 0.13

GAGGCATCTGGGCGGAGGG (double strand) [TAR1604]
activity (fraction of off-target control) [8]: 0.37

GAGGCTGTGTGCTTCTGAG (double strand) [TAR186]
activity (fraction of off-target control) [9]: 0.22

GCAGCTGGGGAGAGCTGGC (double strand) [TAR1612]
activity (fraction of off-target control) [10]: 0.36

GGAGCTGCTGCCTGGCTGG (double strand) [TAR1608]
activity (fraction of off-target control) [11]: 0.34

GGAGGGGGAGAAGTCAGAG (double strand) [TAR1623]
activity (fraction of off-target control) [12]: 0.3

GTGGTATCAAGGAGGAAGT (double strand) [TAR1646]
activity (fraction of off-target control) [13]: 0.11

TGGGTATGGAGTGGAGTCT (double strand) [TAR1655]
activity (fraction of off-target control) [14]: 0.43
